Experiment [1] addresses His-Cdt1(193–447) (Xenopus) (UniProt Q9I9A7). Kind of experiment: Coomassie densitometry of the purified complex on SDS-PAGE.
For experiment [2] the target is unchanged. In words: SEC + other: glycerol gradient sedimentation.

From paper PMC546161 come the findings set out here.

Chain of UniProt Q9I9A7 (Q9I9A7 193-447): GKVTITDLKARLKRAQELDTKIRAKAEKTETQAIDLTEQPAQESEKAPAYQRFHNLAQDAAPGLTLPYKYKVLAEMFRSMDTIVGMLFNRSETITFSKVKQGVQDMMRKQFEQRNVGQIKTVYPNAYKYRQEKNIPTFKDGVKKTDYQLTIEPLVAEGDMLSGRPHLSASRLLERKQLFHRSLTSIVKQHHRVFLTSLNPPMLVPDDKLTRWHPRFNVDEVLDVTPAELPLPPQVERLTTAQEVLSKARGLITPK

For “mini-geminin (residues 87–168), S-tagged (domain or fragment)”, the stoichiometry N (mini-geminin per Cdt1(193–447)) in experiment [1] worked out at 1.9; in experiment [2] it was 2.
